Consider 3 molecules from paper PMC3701624, “Three-Dimensional Structure of Human NLRP10/PYNOD Pyrin Domain Reveals a Homotypic Interaction Site Distinct from Its Mouse Homologue” (PLoS ONE, 2013).

Data set [1] deals with T1, MBP-huNLRP10ΔPYD (Arg103-Ile655) (Homo sapiens (Human), UniProt Q86W26).
T1 chain: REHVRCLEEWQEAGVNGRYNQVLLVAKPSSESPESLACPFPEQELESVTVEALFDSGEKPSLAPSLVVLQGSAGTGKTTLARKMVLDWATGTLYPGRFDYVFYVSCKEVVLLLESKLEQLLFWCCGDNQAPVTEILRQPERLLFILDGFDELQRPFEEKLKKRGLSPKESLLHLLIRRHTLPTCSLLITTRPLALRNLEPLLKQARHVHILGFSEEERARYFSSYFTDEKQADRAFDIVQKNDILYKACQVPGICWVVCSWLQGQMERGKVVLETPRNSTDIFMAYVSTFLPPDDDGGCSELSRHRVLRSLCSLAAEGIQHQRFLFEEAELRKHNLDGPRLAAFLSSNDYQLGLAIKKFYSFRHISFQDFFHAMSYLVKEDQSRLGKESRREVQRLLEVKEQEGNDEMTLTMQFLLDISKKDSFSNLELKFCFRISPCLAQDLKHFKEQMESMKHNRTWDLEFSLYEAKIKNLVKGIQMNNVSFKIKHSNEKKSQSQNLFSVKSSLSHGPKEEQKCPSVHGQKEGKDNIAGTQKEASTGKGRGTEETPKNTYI
Kind of data set: size-exclusion chromatography and pull-down (data not shown). (SEC sorts molecules by how far they enter the pores of the column.)

Substrate in data set [2]: Nc1ncnc2c1ncn2[C@@H]1O[C@H](COP(=O)(O)OP(=O)(O)OP(=O)(O)O)[C@@H](O)[C@H]1O
The experiment in a line: malachite green phosphate release, Lineweaver-Burk. The class given is biochemical, Homo sapiens. The note with it: 50 mM Tris-HCl pH 8.0, 10 mM MgCl2, 37°C, 3 µM protein, 0.1–3.2 mM nucleotide. From the text:
(§1) malachite green phosphate release, Lineweaver-Burk on MBP-huNLRP10 (huNLRP10, PYNOD)

Substrate in data set [3]: Nc1nc2c(ncn2[C@@H]2O[C@H](COP(=O)(O)OP(=O)(O)OP(=O)(O)O)[C@@H](O)[C@H]2O)c(=O)[nH]1
The experiment in a line: malachite green phosphate release, Lineweaver-Burk. The class given is biochemical, Homo sapiens. As to conditions: 50 mM Tris-HCl pH 8.0, 10 mM MgCl2, 37°C, 3 µM protein, 0.1–3.2 mM nucleotide.
From the text: as §1

Substrate in data set [4]: Nc1ncnc2c1ncn2[C@@H]1O[C@H](COP(=O)(O)OP(=O)(O)OP(=O)(O)O)[C@@H](O)[C@H]1O
The experiment in a line: malachite green phosphate release, Lineweaver-Burk. As to conditions: 50 mM Tris-HCl pH 8.0, 10 mM MgCl2, 37°C, 3 µM protein, 0.1–3.2 mM nucleotide. The class given is biochemical, Homo sapiens. From the text:
(§2) malachite green phosphate release, Lineweaver-Burk on MBP-huNLRP10ΔPYD (huNLRP10ΔPYD)
This is another data set of the same source.

Substrate in data set [5]: Nc1nc2c(ncn2[C@@H]2O[C@H](COP(=O)(O)OP(=O)(O)OP(=O)(O)O)[C@@H](O)[C@H]2O)c(=O)[nH]1
Kind of data set: malachite green phosphate release, Lineweaver-Burk. The class given is biochemical, Homo sapiens. As to conditions: 50 mM Tris-HCl pH 8.0, 10 mM MgCl2, 37°C, 3 µM protein, 0.1–3.2 mM nucleotide.
From the text: as §2
The source holds these as a separate data set.

B1: human NLRP10/PYNOD pyrin domain (residues 1-100) (protein)
chain: MAMAKARKPREALLWALSDLEENDFKKLKFYLRDMTLSEGQPPLARGELEGLIPVDLAELLISKYGEKEAVKVVLKGLKVMNLLELVDQLSHICLHDYRE
On to B1, for which the binding result in data set [1] was “no binding”.

B2: MBP-huNLRP10 (huNLRP10, PYNOD) (Homo sapiens) (protein)
chain: MAMAKARKPREALLWALSDLEENDFKKLKFYLRDMTLSEGQPPLARGELEGLIPVDLAELLISKYGEKEAVKVVLKGLKVMNLLELVDQLSHICLHDYREVYREHVRCLEEWQEAGVNGRYNQVLLVAKPSSESPESLACPFPEQELESVTVEALFDSGEKPSLAPSLVVLQGSAGTGKTTLARKMVLDWATGTLYPGRFDYVFYVSCKEVVLLLESKLEQLLFWCCGDNQAPVTEILRQPERLLFILDGFDELQRPFEEKLKKRGLSPKESLLHLLIRRHTLPTCSLLITTRPLALRNLEPLLKQARHVHILGFSEEERARYFSSYFTDEKQADRAFDIVQKNDILYKACQVPGICWVVCSWLQGQMERGKVVLETPRNSTDIFMAYVSTFLPPDDDGGCSELSRHRVLRSLCSLAAEGIQHQRFLFEEAELRKHNLDGPRLAAFLSSNDYQLGLAIKKFYSFRHISFQDFFHAMSYLVKEDQSRLGKESRREVQRLLEVKEQEGNDEMTLTMQFLLDISKKDSFSNLELKFCFRISPCLAQDLKHFKEQMESMKHNRTWDLEFSLYEAKIKNLVKGIQMNNVSFKIKHSNEKKSQSQNLFSVKSSLSHGPKEEQKCPSVHGQKEGKDNIAGTQKEASTGKGRGTEETPKNTYI
notes: full length (Met1-Ile655), N-terminal His6-MBP fusion (pETM41), tag kept; E. coli BL21(DE3)
On to B2, for which the Michaelis constant (Km) (in general, the concentration of substrate that gives half-maximal velocity) turned out to be 169.3 ± 7.3 µM in data set [2] and 295.6 ± 11.0 µM in data set [3].

B3: MBP-huNLRP10ΔPYD (huNLRP10ΔPYD) (Homo sapiens) (protein)
chain: T1 chain
notes: NOD only, pyrin domain removed (Arg103-Ile655), N-terminal His6-MBP fusion (pETM41), tag kept; E. coli BL21(DE3)
For the molecule B3, the Km in data set [4] came to 201.9 ± 1.9 µM; in data set [5], 193.7 ± 17.1 µM.
